According to patent US20230416351A1 (Novartis, published 2023):

Target: T1, recombinant VEGF165 protein (human, UniProt P15692 27-191)
T1 construct: mature; the 165-residue isoform is meant; also called VEGF-A
Experiment: SPR in vitro binding, drug and recombinant VEGF165, 37 C
Description: Drug-specific parameters used are defined based upon which drug(s) is included in the specific simulation. These values are shown in Table 2 for brolucizumab, aflibercept, and ranibizumab. The drug:VEGF binding parameter values (the dissociation rate constant “koff” and the equilibrium binding constant “Kd”) were defined on the basis of a surface plasmon resonance (SPR) in vitro binding experiment with drug and recombinant VEGF165 protein at 37° C. according to manufacturer's instructions. The hydrodynamic radius values for drug (“rh_R”) and associated drug:VEGF complexes (“rh_VR” and “rh_RVR”) were sourced from literature reports (Caruso et. al., Mol. Pharmaceutics 2020, 17, 695-709) or from computational structure models of drug and VEGF. This includes estimated hydrodynamic radius values for the heterogenous complexes consisting of one VEGF dimer and two different VEGF antagonists (“rh_ROVR”). Drug-independent parameters used are used to describe VEGF production and distribution within and out of the eye, as well as general biophysical properties of the eye such as permeability coefficients for the Inner Limiting Membrane (ILM) and Retinal Pigment Epithelium (RPE) and the clearance rate from the aqueous chamber.

T1 sequence (P15692 other isoform, or with tags, fused parts or gaps): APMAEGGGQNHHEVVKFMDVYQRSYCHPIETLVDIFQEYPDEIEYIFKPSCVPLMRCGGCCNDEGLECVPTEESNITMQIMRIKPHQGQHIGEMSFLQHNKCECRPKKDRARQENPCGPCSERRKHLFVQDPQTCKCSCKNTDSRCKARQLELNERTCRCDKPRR

Kd: 0.101 nM
B1: brolucizumab (scFv)
scFv: MEIVMTQSPSTLSASVGDRVIITCQASEIIHSWLAWYQQKPGKAPKLLIYLASTLASGVPSRFSGSGSGAEFTLTISSLQPDDFATYYCQNVYLASTNGANFGQGTKLTVLGGGGGSGGGGSGGGGSGGGGSEVQLVESGGGLVQPGGSLRLSCTASGFSLTDYYYMTWVRQAPGKGLEWVGFIDPDDDPYYATWAKGRFTISRDNSKNTLYLQMNSLRAEDTAVYYCAGGDHNSGWGLDIWGQGTLVTVSS
notes: Humanized single-chain Fv (VL-linker-VH), ~26 kDa; also called Beovu; VEGF antagonist A
